According to the DeepSol protein solubility set:

Test: soluble on expression in E. coli; label from the status in PepcDB or PDB records

Sequence	soluble on expression in E. coli
PIDWNPQRIAVSGVSGVGKTTLCKQIAALSGFPRVELDSLYHGENWVPRETFVAEVQDFIKGPQWVMELQYRQVRPLIVERADTVLWLDYSTPRQMFRLIKRTIPRSLFKTKL	not soluble
MKQDMWELRKIQSQGITDNAQYPAGTYIVFTAAAPYIPLFEQHGKDDIALSLVRHEEAWWIVNHSDELCCAVNEQVMEPHHRMRLNDGDTIEWGLSSWCLARTNDESRPDVSFPQLVQSSESVAEYLDLDWFKQQQLNPQNPFDIIPVRETASSYTGHEADSTLHQLYQEYQQALRPSGQEKPLRAKPFPRNEDAVTQDLTSLYDKKGDTDTLQDMVAGAPGIDAILDTLDTTGEGEMHWLAMESMPDILQLLSPELGGKTAHSEILPDLTRREHRIIGIDSHYRITPTQKNGNTAHEKN	not soluble
MGSDKIHHHHHHMHDYYQLVTVADLPQDNRQILDTLTAIGAGKLPNDLRLLNYYRSIPVNYGATVESVERGSVELTVNQQQAIVMQLEKQVFLKSGHFPKDVLAAVTYVNIDKSVAILANFAYAVIRSERRQFVRVEVKDKIEASFSGDGFTVAGLLNDISLGGVAISATIPTHPDAGIKGKVTLRLPGGPFEMPAQVLRVIPAYYTDLCIIEIQPDNRTEKGISQYIFQRQVEIIRELKDSIF	not soluble
MPEVKTEKPHLLDMGKPQLRMVDLNLLTVFDAVMQEQNITRAAHTLGMSQPAVSNAVARLKVMFNDELFVRYGRGIQPTARAFQLFGSVRQALQLVQNELPGSGFEPTSSERVFNLCVCSPLDNILTSQIYNRVEKIAPNIHVVFKASLNQNTEHQLRYQETEFVISYEEFRRPEFTSVPLFKDEMVLVASRKHPRISGPLLEGDVYNEQHAVVSLDRYASFSQPWYDTPDKQSSVAYQGMALISVLNVVSQTHLVAIAPRWLAEEFAESLDLQILPLPLKLNSRTCYLSWHEAAGRDKGHQWMEDLLVSVCKR	not soluble
GPGSMQQPGSHQIQPIDSLTPFLGGKWWIRARVTDKTDIRTWNKPTSQGKLFSFTLIDESAAIRATVFNDAVDTFEPLIVNGQVYYFSGGQVKNANRRFSNVNNDYELTFDRSSEIMLARQDTSTAALPMQRYNFVPIELLKQREVGSLVDVLGVVLKVDEVSSITQKSTGRELMKRNVKMGDMTAAVEVTFWNDEAKAWCYPVGTVVALRQLKVGSFDGVTLSSTYQTKIDINPTDLPDVKKLATWYVATGGANVTSLSSQGLGAASGAGGESDRGRKYLDEIQSEGIGRGLKPEYVDVRCVPIYFKQDAQWYDACPTCNKKVTEEGAQGDRFRCEKCDKTVTPTQRYLVSIQVTDNVSQAWLTLFNEAGIEFFGMEAAELKRRAQEDPLYIAKLAQGRMNRPVVMRLRVKEEMSSNSMTGEESDRLRMSVVRISEFMPIAGTSEETRRRLAQNLRTECDEILRLIEAYV	not soluble
MSLKLIATDLNGTLLHQDQGFNQPLLKETLSQLKQRGIRLVLASGNQYAHLKEVFREIWSTDLAVIAENGASIYLGDELVFDGSLTPQQVRLFLSATAQDEFLQNAYLILVGAQGSYTRVGAPAPLIAAAEKFYDHLQQVMSLETVTDRIKKISVSTAPEQAAALVQHLNQRFTGQLRAHDSGYGVIDVVSLHVGKLPAVQWLAQHWQIPATEIVAFGDGANDVPLLNYAGQSYAMKNAPVDIQAQAKHVTVWDNDRDGVLRTIATLLVADEGHHHHHH	soluble
MGSDKIHHHHHHMSGIEAFSPKGMLHECWSAQANDYAIVCGWALQGKTFLVGDVAGGLYAFEGISGKLIWQIKDIHKGGLLAMSIHPNGKTFATAGQDGHVNIWESQKGTSTKTLELGKGWVEHIKWSPDGKFLAVVFTKYVYVFDDKGQEHWRSEEHPSTVSAIAWSNSNELATACYGQVTFFDVVNDKINQKLEWRGSLVSMVLSPDGDIVACGSQDNSVHFWRRSTDQDSEMTGYPGKPSHLAFDQTGTVLATGGSDRVTVWSFQGDGPEGTVPGELMLHTEPISCLAFSHSGMLLASGSRDGSVFSWFLQKDGQGDPVGGAFAGDLVSQIAWHPDDTALAAINANGGITVWEFKVRTKTSPQGFG	not soluble
MKIAYLGPKGSFSHHVVQTAFPHEELQAFANITDVIKAYEQGLVNYSVVPVENSIEGSVHETLDYLFHQAHIQAVAEIVQPIHQQLMVVPGHTKIEKIFSHPQALAQGKKFIDEQYPEAQIEVTASTAYAARFISEHPDQPFAAVAPRSSAEEYGLELIAEDIQEMEANFTRFWVLGAEKP	not soluble
MMVVNIKMQQMKSQFIQYNDSNNKVLYQKCKPVADIQNAEIQNIITEMHEKMQGNGIGLAANQIGYPYQIFMIEFDSSNARYPFSFDSVPYQVFINPKITKASKQRVSFWHGCLSALGEKRGKLATYKEIEYEAYNQHGEKITGKLDSIAAIIFQHEFNHLLGSVYVDFDTEYIDNEELQAKFASGELKPYQECGEEVPLLLEKYQIGKNI	not soluble
DTTERKRREKRLEETSSRLEALFENSPDMIDVLDADGTICEVNQRFCAELGYDESEVLGRSIWEFDLMFDAEDVQTQLSGFSVDERRKFEGLYERRDGSTMSVEVHLLRFNLEGEDRFLAISRD	soluble
MGFNVKTPLLATDVIIRLWDGENFKGIVLIERKYPPVGLALPGGFVEVGERVEEAAAREMREETGLEVRLHKLMGVYSDPERDPRAHVVSVVWIGDAQGEPKAGSDAKKVKVYRLEEIPLDKLVFDHKKIILDFLKGNY	soluble
MYKINDFEIMAPVGSRESLAAAIQAGADSIYFGIENLNMRARSANTFTIEDLREIARTCDEHGMKSYLTVNTIIYDKDIELMRTIVDAAKEAGISAVIAADVAVMSYANKIGQEVHLSTQLNISNAEALKFYAQFADVVVLARELNLEQVAEIYRQIQEEHICGPSGELIRIEMFCHGALCMAVSGKCYLSLHEMNHSANRGACMQICRRAYTVRDKDTDVELEVDNQYIMSPKDLKTIHFMNKMIDAGVRVFKIEGRARGPEYVRTVVECYKQAIRAYLDDSFTDEKIAAWDERLKTVFNRGFWDGYYLGQRLGEWTKNYGSAATERKIYVGKGIKYFSNIGVAEFLVEAAEVSVGDKLLITGPTTGAVFATLDEARVDLKPVETVKKGEHFSMKLDKIRPSDKLYKLVSTEELKKFKGL	not soluble
MIIRIVQNIQRINKEGNAPLYISFYLGKEKVVIPCKLSVPTTKFDSKTGMLRGTNKEAKDINLIIERLKAKVNDILVKHRLKNLTLNKEAFMREYNNPSDFKSFHDFVASYMKTYSRRLEIGTFRHHKSCMRKFKEYCEGLQFHELTEDFLRDYLIYMKKTLCNADSTAQRNLSTIKIYVSAAIKKGYMENDPFKDFGVKRIKSNIDYLTEEELIKFISLYYDRRLPERLERTLGFFLFMCFTSLHISDARHVCLEQINNGILTYYRIKNRNCKPEAIKIPLSIPAFKIIEELQGKRKEGH	not soluble
MGHHHHHHSHMSEFMQRFADLRDRKAYAEIVDALPYVKLMGTSMAEDEQGELRFELPFLQRNVGNTTLPALHGGLIGGFMESAAMIHLMWNRESLEAPKIVDFSLDYLRPGRPQTLFAQCEITKQGKRVAHVLIEAWQDDRSKPVAVARAHFLLTN	soluble
MSTSVAENKALSASGDVNASDASVPPELLTRHPLQNRWALWYLKADRNKEWEDCLKMVSLFDTVEDFWSLYNHIQSAGGLNWGSDYYLFKEGIKPMWEDVNNVQGGRWLVVVDKQRRTQLLDHYWLELLMAIVGEQFDEYGDYICGAVVNVRQKGDKVSLWTRDATRDDVNLRIGQVLKQKLSIPDTEILRYEVHKDSSARTSSTVKPRICLPAKDPAPVKEKGPAATTSPSNPGTEATGTSPATPTP	not soluble
MNPLKKIKDWIAEGKAGWHLAGGRSSLKQGKYKEALKEFRKALKARPNNPEILHYNAITLLKLKRPEKALECYEKILKNNPKLAEAWNNKGLVLKELGRYDEALECYEKALKINPKYAGAWNNKALVLKELGRYDEALECYEKALQINPKLADAWYNKGSVLIYLKKYKKALKCFEKAIELNPKNYRAWGTKGITLHNLKIYEEALKCYDKVLQLNPQDDKAWNNKGLVFNELGRYDESLECYEKALQINPKLAEAWNNKGVVLSELGRYEEALECYEKALEIDPEDDKTWNNKGLVLEELGKYKDALECFQKALEINPEFADAWKWKGIILEDLKKPEESLKCYKKALKLNPPKQNTMVHARKNTTKTRQTQRSTKML	not soluble
MGSDKIHHHHHHACILFVCFLYTNNEIGVTSSKLEADIRSSQKIKDDWTVDGSVSSTMAAYISYPQDLSDHSFSVYVNRPGLSFGYFFRGGGTLSGIQRGIVEFTVEGYNERAFISMNQQQVQQLEIDDGNTIQVVDIDRNKPFAIVLPINAGNITFYDVNRNTVEYWNNPL	not soluble
MSIVVKKWNELAEVKAELAARDWFFATSGNLSIKVTDDPLTFLVTASGKDKRKQTEEDFLLVDAAGKPAEETNLKPSAETLLHAEIYGRTNAGCVLHVHTVDNNLISELYAQNGEAVFSGQEIIKAFGIWEENAAVRIPIIDNYADIPTLAREFANYIHGDAGAVLIQNHGITVWGRTAFEAKKHLEAWEFLFRWQVKRLLLQRAGLPVG	not soluble
MSLRAYIPIDKYSLPEKFEIPLGNTNYIFEVDYNQTEKFFTVDLYDIDHTPIAIGERMVIDERLWQDIVDTRLPSADLVPMDESGASKEITFENFGIQVFLYIDDLPPNYNVPSLEREDN	not soluble
MGRNRIKKVTERLPLPPNARRVEDPEMNMSREVVEDPGVPGTQDVTFAVAEVNGVETGRLPVANVVVTPAHEAVVRVGTKPGTEVPPVIDGSIWDAIAGCEAGGNWAINTGNGYYGGVQFDQGTWEANGGLRYAPRADLATREEQIAVAEVTRLRQGWGAWPVCAARAGAR	soluble
MNTVLIPPGPGGYGKGLWLPVGSGKKVLSLTGREIHPVAIEIGALTQSEVVNGFADIPPDNDILCVVINCAGSLRCGLYPQKGIPTINVLPTWRAGPLAQFITEENYVSGVTMEQLVLVDTAEAPDGKPETTQEPAPRVISTPPSPRGAEKLVRMVEQTGTAVGHVIALLFAASREAVDVSLRN	not soluble
MLIDKTIILSVAFFTSSVFGQTSDKDFLKKPHVLPSAEAAYHAVYHELDSVKSGNRDEKVFGQLYVALIEDQFTFGGDLSTWPDSAFQKGDRGCKPFMAANLHNLCNNEYFLVHQDMIKLVKTVFERKNQADPSFDTICLANNGFVVSDDPENHLVYRYKHRIPMTYKATSNDQKCFGTYDTRTDTFTCMRYDASTKKMSPFELQNFLWKENTGTFHLGNGNAEVFCKKPFYTNK	not soluble
TRGLNFSVEFTGGTVMEVQYQQGADVNKMRERLDTLKIGDVQVQALGTNKHIMIRLPNKEGVTSAQLSNQVMDLLKKDSPDVTLRQVEFIGPQVGEE	not soluble
